Test results as given in US20030232760A1, “Conjugates useful in the treatment of prostate cancer” (priority 2001, published 2003).
Where a SMILES comes first, the peptide text is derived from it. Primed or numbered codes have the meaning given here. [ ]: non-standard residue; d: D form. The star is where a group is joined. ξ: configuration not given here. Doxorubicin(3'-N) = COc1cccc2c1C(=O)c1c(O)c3c(c(O)c1C2=O)C[C@@](O)(C(=O)CO)C[C@@H]3O[C@H]1C[C@H](N*)[C@H](O)[C@H](C)O1; PEG(2) = polyethylene glycol-containing substituent with two ethyleneoxy subunits; Hyp = O=C(O)[C@@H]1C[C@@H](O)CN1; ξtBuAla = CC(C)(C)CC(N)C(=O)O; Chg = N[C@H](C(=O)O)C1CCCCC1; ξHyp = O=C(O)C1CC(O)CN1

How the values were obtained:
[1] = test system: DuPRO cells; experiment: In vitro cytotoxicity of peptidyl derivatives of doxorubicin, Alamar Blue assay, DuPRO; type: cell-based; settings: 72 HRS, read-out: DuPRO Cell Kill in 72 HRS EC 50
Method: (§1) The cytotoxicities of the cleaveable oligopeptide-doxorubicin conjugates, prepared as described in Examples 3 and 4, against a line of cells which is known to be killed by unmodified doxorubicin were assessed with an Alamar Blue assay. Specifically, cell cultures of LNCap prostate tumor cells (which express enzymatically active PSA) or DuPRO cells in 96 well plates was diluted with medium (Dulbeco's Minimum Essential Medium-α [MEM-α]) containing various concentrations of a given conjugate (final plate well volume of 200 μl). The cells were incubated for 3 days at 37° C., 20 μl of Alamar Blue is added to the assay well. The cells were further incubated and the assay plates were read on a EL-310 ELISA reader at the dual wavelengths of 570 and 600 nm at 4 and 7 hours after addition of Alamar Blue. Relative percentage viability at the various concentration of conjugate tested was then calculated versus control (no conjugate) cultures. If no salt is indicated, the free conjugate was tested.

[2] = biological target: T1, enzymatically active free PSA (Homo sapiens, UniProt P07288); experiment: Recognition of oligopeptide-doxorubicin conjugates by free PSA (HPLC cleavage assay); type: biochemical; settings: for Time to 50% Substrate Cleavage by PSA: conjugate added to PSA at molar ratio 100 to 1, PSA digestion buffer
T1 construct: required for 50% cleavage of the noted oligopeptides with enzymatically active free PSA
Method: The conjugates prepared as described in Examples 3-5 were individually dissolved in PSA digestion buffer (12 mM tris(hydroxymethyl)-aminomethane pH8.0, 25 mM NaCl, 0.5 mm CaCl2) and the solution added to PSA at a molar ration of 100 to 1. Alternatively, the PSA digestion buffer utilized is 50 mM tris(hydroxymethyl)-aminomethane pH7.4, 140 mM NaCl. The reaction is quenched after various reaction times by the addition of trifluoroacetic acid (TFA) to a final 1% (volume/volume). Alternatively the reaction is quenched with 10 mm ZnCl2. The quenched reaction was analyzed by HPLC on a reversed-phase C18 column using an aqueous 0.1% TFA/acetonitrile gradient. […] If no salt is indicated for the conjugate, the free conjugate was tested. The oligopeptide-cytotoxic agent conjugates described in Examples 4 and 5 were assessed for the amount of time (in minutes) required for 50% cleavage of the oligopeptide with enzymatically active free PSA and 50% cleavage occurred in less than 2 hours for those conjugates.

[3] = test system: LNCap prostate tumor cells (which express enzymatically active PSA); experiment: In vitro cytotoxicity of peptidyl derivatives of doxorubicin, Alamar Blue assay, LNCaP; type: cell-based; settings: 72 HRS, read-out: LNCaP Cell Kill in 72 HRS EC 50
Method: as §1

[4] = biological target: T1, enzymatically active free PSA; experiment: Recognition of oligopeptides by free PSA (HPLC cleavage assay); type: biochemical; settings: for Substrate cleavage by PSA at 3 HOURS: oligopeptide added to PSA at molar ratio 100 to 1; for Time to 50% Substrate Cleavage by PSA: oligopeptide added to PSA at molar ratio 100 to 1, PSA digestion buffer
Method: The oligopeptides prepared as described in Example 1 were individually dissolved in PSA digestion buffer (12 mM tris(hydroxymethyl)-aminomethane pH8.0, 25 mM NaCl, 0.5 mM CaCl2) and the solution added to PSA at a molar ration of 100 to 1. Alternatively, the PSA digestion buffer utilized is 50 mM tris(hydroxymethyl)-aminomethane pH7.4, 140 mM NaCl. The reaction is quenched after various reaction times by the addition of trifluoroacetic acid (TFA) to a final 1% (volume/volume). Alternatively the reaction is quenched with 10 mM ZnCl2. The quenched reaction was analyzed by HPLC on a reversed-phased C18 column using an aqueous 0.1% TFA/acetonitrile gradient. […] Oligopeptides containing free amine moieties (ie. comprising hArg, Orn, Lys and or 3PAL) were tested as TFA salts. All other oligopeptides were tested as neutral compounds.

T1 sequence (P07288 25-261): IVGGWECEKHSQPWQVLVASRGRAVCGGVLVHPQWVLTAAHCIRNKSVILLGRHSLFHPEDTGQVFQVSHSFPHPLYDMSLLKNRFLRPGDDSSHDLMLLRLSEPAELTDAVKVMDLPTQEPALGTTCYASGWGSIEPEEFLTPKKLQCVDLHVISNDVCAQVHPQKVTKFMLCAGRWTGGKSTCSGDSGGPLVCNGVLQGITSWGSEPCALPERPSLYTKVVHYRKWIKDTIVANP

COc1cccc2c1C(=O)c1c(O)c3c(c(O)c1C2=O)C[C@@](O)(C(=O)CO)C[C@@H]3O[C@H]1C[C@H](NC(=O)C(CC(C)(C)C)NC(=O)[C@H](CO)NC(=O)[C@H](CCC(N)=O)NC(=O)[C@@H](NC(=O)[C@H](CO)NC(=O)[C@H](C)NC(=O)C2CC(O)CN2C(C)=O)C2CCCCC2)[C@H](O)[C@H](C)O1 (stereo partly shown) (Ac-[ξHyp]AS[Chg]QS[ξtBuAla]-{Doxorubicin(3'-N)})
EC50 [1]: > 100 µM
Time to 50% Substrate Cleavage by PSA [2]: 25 min
EC50 [3]: 100 µM

COc1cccc2c1C(=O)c1c(O)c3c(c(O)c1C2=O)C[C@@](O)(C(=O)CO)C[C@@H]3O[C@H]1C[C@H](NC(=O)[C@H](CC(C)C)NC(=O)[C@H](CO)NC(=O)[C@H](CCC(N)=O)NC(=O)[C@@H](NC(=O)[C@H](CO)NC(=O)[C@H](C)NC(=O)[C@@H]2C[C@@H](O)CN2C(C)=O)C2CCCCC2)[C@H](O)[C@H](C)O1 [Ac-(4-trans-L-Hyp)ASChgQ-SL-DOX (3′), [N-Ac-(4-trans-L-Hyp)]-Ala-Ser-Chg-Gln-Ser-Leu-Dox] (Ac-[Hyp]AS[Chg]QSL-{Doxorubicin(3'-N)})
EC50 [1]: 90 µM
Time to 50% Substrate Cleavage by PSA [2]: 20 min
EC50 [3]: 4.5 µM

Ac-(4-trans-L-Hyp)ASChgQ-SThi-DOX (3′)
Solubility noted in the column Time to 50% Substrate Cleavage by PSA [2]: INSOLUBLE

Ac-(4-trans-L-Hyp)ChgQ-SSSL-acid
Substrate cleavage by PSA at 3 HOURS [4]: 3 HOURS = 0% n = 2

Ac-(Dehydro-Pro)-ASChgQ-SL-acid
Substrate cleavage by PSA at 3 HOURS [4]: 3 HOURS = 28%

Ac-PASChgQ-SL-acid (Ac-PAS[Chg]QSL-OH)
Time to 50% Substrate Cleavage by PSA [4]: 150 min

Ac-PSSChgQ-SV-acid
Time to 50% Substrate Cleavage by PSA [4]: 120 min

PEG(2)-(4-trans-L-Hyp)ASChgQ-SL-acid ({PEG(2)}-[Hyp]AS[Chg]QSL-OH)
Substrate cleavage by PSA at 3 HOURS [4]: 3 HOURS = 44%

[N-Ac-(4-trans-L-Hyp)]-Ala-Ser-Chg-Gln-Ser-Leu-OH (Ac-[Hyp]AS[Chg]QSL-OH) [Ac-(4-trans-L-Hyp)ASChgQ-SL-acid]
Time to 50% Substrate Cleavage by PSA [4]: 75 min
